Assay results: patent publication US20160377619A1 (published 2016)

Biological target: lysyl-tRNA synthetase (KRS), recombinant (human, UniProt Q15046 1-597)
Experiment: SPR

Chain of lysyl-tRNA synthetase (KRS), recombinant (Q15046 whole entry): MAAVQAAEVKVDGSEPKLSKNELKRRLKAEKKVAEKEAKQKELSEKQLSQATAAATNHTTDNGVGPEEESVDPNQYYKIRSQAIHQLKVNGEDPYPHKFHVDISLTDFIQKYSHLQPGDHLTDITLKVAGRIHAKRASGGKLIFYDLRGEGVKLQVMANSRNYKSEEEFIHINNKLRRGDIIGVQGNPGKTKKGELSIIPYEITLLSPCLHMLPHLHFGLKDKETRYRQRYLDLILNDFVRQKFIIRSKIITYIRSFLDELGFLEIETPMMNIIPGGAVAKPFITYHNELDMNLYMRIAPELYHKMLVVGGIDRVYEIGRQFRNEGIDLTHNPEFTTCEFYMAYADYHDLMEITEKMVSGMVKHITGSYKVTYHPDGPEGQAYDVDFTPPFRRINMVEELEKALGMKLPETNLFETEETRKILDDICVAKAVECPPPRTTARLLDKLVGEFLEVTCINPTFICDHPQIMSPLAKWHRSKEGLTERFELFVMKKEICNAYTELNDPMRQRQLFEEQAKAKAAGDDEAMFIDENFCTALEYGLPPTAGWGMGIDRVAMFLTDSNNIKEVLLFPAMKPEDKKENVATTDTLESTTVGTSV

Kd: 110 nM
B1: anti-KRS scFv Biocon-K1 (scFv)
scFv: EVQLLESGGGLVQPGGSLRLSCAASGFTFSNYAMSWVRQAPGKGLEWVSGISPSSGDTYYADSVKGRFTISRDNSKNTLYLQMNSLRAEDTAVYYCAKGVWWYHPLLFDYWGQGTLVTVSSGGGGSGGGGSGGGGSQSVLTQPPSASGTPGQRVTISCSGSSSNIGNNTVSWYQQLPGTAPKLLIYANSKRPSGVPDRFSGSKSGTSASLAISGLRSEDEADYYCGAWDSSLSGYVFGGGTKLTVL
